# Laboratory results taken from patent US20140287419A1, “Compositions Having Dicamba Decarboxylase Activity and Methods of Use” (priority 2013, published 2014).
# Substitutions are numbered along the chain they refer to.
# B1: SEQ ID NO:58: amidohydrolase 2, Mycobacterium colombiense CECT 3035 (protein)
# chain: MARVIALEEHYATTEFLRGPGTWLASRPGIVEPAGDLGDGRIAAMDQAGVDLAVLSLAAPGVEQLDPDDAVRLARDCNDQLAAAVRRYPDRLAGFATVPTSAPDRAADELERAVRGLGFPGAVINGHSRGRYLDDPFFEPVLARAAELQAPIYLHPTIPPAGVIESSYAGFAEPVTFALATVGWGWHINTATHALRMILGGVFDRHPSLQMIIGHMGEATSFMLPRFDATLKPELTGLNHPVSSYLRENFHYTFANFNDHATYANLVAQVGIERVAFSADYPFGSMVDARAFLDGLPLSDDERAAISHRNAEKLLGL
# modifications: Mycobacterium colombiense
# B2: SEQ ID NO:2: o-pyrocatechuate decarboxylase, Serratia sp. AS12 (protein, listed as Serratia sp.)
# chain: MAKIICLEEHTLDKALVMASMPAALEQAPFLSDWGKTVTDGNLPDRSRPQIEKNDLINIKGADIGRGRLDDMDVAGITMQVLSVGGFPHLISAAEGVDLNRAANDRLADAVNAHPDRFAAFATLPWAQPDSAEKELERAVKELGFKGALLNGRPSTHFLDHPDYDGLLARFNALGVPLYLHPGLPVRSVQQAYYGGFSDEVTARLSMFGWGWHHEAGIHLLRLILSGAFDKYPNLQVISGHWGEMLPFWLQRLDDSLPQAATGLRRTIAQTFKEQVYVTPSGMLTLPHFQFIYALLGAERIIFSVDYPYQTLDGVKAFIQSLPVPEEAKEAIAFRNAERLLGLTS
# B3: SEQ ID NO:55: o-pyrocatechuate decarboxylase, Serratia sp. AS12 (protein, listed as Serratia sp.)
# chain: B2 chain
# B4: SEQ ID NO:50: hypothetical protein SSMG_03140, Streptomyces sp. AA4 (protein, listed as Streptomyces sp.)
# chain: MARIVTLEEHWTDPAVTAAGMPNLLDHVPGYAAAFDPDTGMPYPRHPELLEDLGAARIADMDRHGITTQVLSLVNTFLPADVAPRLTAAANDAMAAAVEAFPGRFAAFATLPTAVPGAAADELRRCVGELGFVGTMIMGRTDGEFLDQPRFDPILRAASDLSVPVYLHPAPPPVAVSEASYAGGLSPAVSAAFRLAAWGWHQETAVHLLHLVLAGVLDRYPGLQFVLGHWGEFIPFYLDRLDESMPRRMTGLDRTFREYFRDNVFITPSGMFSQAQLRYCADTVGTDRIIHSVDFPMLGNEGAVSFLTDSHLSREDQEKIAHGNADALLGLG
# B5: SEQ ID NO:51: TIM-barrel fold metal-dependent hydrolase, Mycobacterium gilvum Spyr1 (protein, listed as Mycobacterium gilvum)
# chain: MARVIAIEEHYAHPGLQPAEALANLRKHPQLARIQDKLEDLGAGRLADMDAAGIDMQVLSHTVPGAEALPAAQAVDVVRQTNDDLAEVIAAHPDRFAGFAALPMRDPQAAATELQRAVGTLGFCGAMINGLIEGRFLDHPDFTPLLSTAADLGVPLYLHPSFPPPQVAQIYFGGLPPVLADLLATAGWGWHAETALHVLRLISTGVFDRLPELRVIVGHMGEMIPFALARIDTVLSPMTELRQPVAQYFQTNVWFTTSGYTTFPPLQCALSTVGIDRLIFSVDYPYTDNASARALLDTAPISPVDREKLAHATVEALLRV
# B6: SEQ ID NO:56: hypothetical protein EAE_19025, Enterobacter aerogenes KCTC 2190 (protein)
# chain: MAKIICLEEHYLDSELGRACMPVALEQAPFLGDWGKTVADGHNPDRSRPQIEKNALINAKGADLGSRRLRDMDEAGITLQILSVGGFPQLAPEDEAVTLNTAANDRLAEAVRNHPDRFAAFATLPWAQPKDAENELVRAVEKLGFKGALLNGRPSSCFLDHPDYDSLLSRFNKLNVPLYLHPGLPLKSVQQAYFTGFSAEVNARLSMFGWGWHHEAGIHLLRLMLSGAFDKYPNMQVISGHWGEMLPFWLQRLDDSLPLAATGLSRTLTRTFQEHVYVTPSGMLTLPHFKFIYELMGAERILFSVDYPYQTLDGVKTFIDSLPVNKAEKEAIAFRNAERLLGITA
# modifications: Enterobacter aerogenes
# B7: SEQ ID NO:53: amidohydrolase, Granulicella tundricola MP5ACTX9 (protein, listed as Granulicella tundricola)
# chain: MARTITLEEHFVTDSFLRATGAYDKPAPPWLAQLQPKLLDLGDGRIAAMDEAGIDLQVLSLAALGFDALDAATATPLVHDINDELAAAVRANPTRLAAFASLALKDPQSAARELERAIQKLGFRGVLLDGTTDGLFLDDPRFTPVFEAAVALNVPIYLHPAPPPESVFDTYFTGLPEGVGQMLSIAGWGWHAETALHTLRLITNGVFDRYPTLQLIIGHMGEMLPMALARTSKALSHAARLRQPVAAYFQSNIHLTTSGYFTQPPLRCALDVVGIDRLMFSIDYPFSANTLGRDYLTELEQTLTPEDLAKLIHRNAESLLNLS
# B8: SEQ ID NO:57: amidohydrolase, Collimonas fungivorans Ter331 (protein)
# chain: MAKLICVEEHVLDPAVGAATQSLVRAEAPYLPDWGSRVLDGRHVADRSRPHVIAPSESARKALEMGEPRLADMDAASIDMQVLSYGGFPQLLPAAQAIDLNRAANDKLALAAQAHPARFAGFATLPWQAPEAAARELERAVKQLGLKGALINGRPGDTFLDDARYAPILAAFDELKVPLYVHPGLPLPAVQAPYYGGFERELSARLAMFAWGWHNEAGIQVVRMLLAGVFDRHPRLQLISGHWGEMVPFFLQRLEDSIPQEASGLQRPIVQTYREHVYISPSGMFTLPHFQFIHALMGAQRILYSIDYPYQSLDGARAFIERLPISDTDKALIAHRNAERLLHL
# modifications: Collimonas fungivorans
# B9: SEQ ID NO:52: putative decarboxylase, Streptomyces sp. SA3_actG (protein, listed as Streptomyces sp.)
# chain: MAKIIALEEHFSDPAVAKAGAARAQALSPGFAASYSPASGLPYSPSPEVLENLAEKRLADMDAGGITMQVLSGLSAQTVPADVAPALVAGSNDKAAAAVRAHPDRFAAFAALPTAAPEAAVAELDRSVNELGFVGTLIMGRTEGEFLDAPRFEPILARAAALKVPVFLHPGVPPREITDSNYAAGLPTGIGTRLQTAAWGWHQETAVHFLHLVHSGVLDRYPDLQFILGHWGETIPFYLDRVDEALPQRATGLDRSFHEYFRENVYLAPSGMWSQAQLRFCLETFPLERIVFAVDYPFIGNEGAVPFLEKAELPEADKRKIAHENAERLLGL
# B10: SEQ ID NO:54: putative decarboxylase, Streptomyces sp. Tu6071 (protein, listed as Streptomyces sp.)
# chain: B9 chain with S75G, V128I, D223G, T234M, F285V
# Test: 14C assay with IPTG-induced recombinant E. coli cells (14CO2 capture from [14C]-carboxyl-labeled dicamba)
# Conditions: E. coli cell assay, 108 sequences tested
row,Molecule,decarboxylation activity of dicamba
1,B1,showed decarboxylation activity of dicamba
2,B2,showed decarboxylation activity of dicamba
3,B3,showed decarboxylation activity of dicamba
4,B4,showed decarboxylation activity of dicamba
5,B5,showed decarboxylation activity of dicamba
6,B6,showed decarboxylation activity of dicamba
7,B7,showed decarboxylation activity of dicamba
8,B8,showed decarboxylation activity of dicamba
9,B9,showed decarboxylation activity of dicamba
10,B10,showed decarboxylation activity of dicamba
